# Test results from IntAct's records for PubMed 29039417.
# B1: BBSome complex member BBS1 (Homo sapiens), Q8NFJ9 (parent)
# chain: MAAASSSDSDACGAESNEANSKWLDAHYDPMANIHTFSACLALADLHGDGEYKLVVGDLGPGGQQPRLKVLKGPLVMTESPLPALPAAAATFLMEQHEPRTPALALASGPCVYVYKNLRPYFKFSLPQLPPNPLEQDLWNQAKEDRIDPLTLKEMLESIRETAEEPLSIQSLRFLQLELSEMEAFVNQHKSNSIKRQTVITTMTTLKKNLADEDAVSCLVLGTENKELLVLDPEAFTILAKMSLPSVPVFLEVSGQFDVEFRLAAACRNGNIYILRRDSKHPKYCIELSAQPVGLIRVHKVLVVGSTQDSLHGFTHKGKKLWTVQMPAAILTMNLLEQHSRGLQAVMAGLANGEVRIYRDKALLNVIHTPDAVTSLCFGRYGREDNTLIMTTRGGGLIIKILKRTAVFVEGGSEVGPPPAQAMKLNVPRKTRLYVDQTLREREAGTAMHRAFQTDLYLLRLRAARAYLQALESSLSPLSTTAREPLKLHAVVQGLGPTFKLTLHLQNTSTTRPVLGLLVCFLYNEALYSLPRAFFKVPLLVPGLNYPLETFVESLSNKGISDIIKVLVLREGQSAPLLSAHVNMPGSEGLAAA
# partner: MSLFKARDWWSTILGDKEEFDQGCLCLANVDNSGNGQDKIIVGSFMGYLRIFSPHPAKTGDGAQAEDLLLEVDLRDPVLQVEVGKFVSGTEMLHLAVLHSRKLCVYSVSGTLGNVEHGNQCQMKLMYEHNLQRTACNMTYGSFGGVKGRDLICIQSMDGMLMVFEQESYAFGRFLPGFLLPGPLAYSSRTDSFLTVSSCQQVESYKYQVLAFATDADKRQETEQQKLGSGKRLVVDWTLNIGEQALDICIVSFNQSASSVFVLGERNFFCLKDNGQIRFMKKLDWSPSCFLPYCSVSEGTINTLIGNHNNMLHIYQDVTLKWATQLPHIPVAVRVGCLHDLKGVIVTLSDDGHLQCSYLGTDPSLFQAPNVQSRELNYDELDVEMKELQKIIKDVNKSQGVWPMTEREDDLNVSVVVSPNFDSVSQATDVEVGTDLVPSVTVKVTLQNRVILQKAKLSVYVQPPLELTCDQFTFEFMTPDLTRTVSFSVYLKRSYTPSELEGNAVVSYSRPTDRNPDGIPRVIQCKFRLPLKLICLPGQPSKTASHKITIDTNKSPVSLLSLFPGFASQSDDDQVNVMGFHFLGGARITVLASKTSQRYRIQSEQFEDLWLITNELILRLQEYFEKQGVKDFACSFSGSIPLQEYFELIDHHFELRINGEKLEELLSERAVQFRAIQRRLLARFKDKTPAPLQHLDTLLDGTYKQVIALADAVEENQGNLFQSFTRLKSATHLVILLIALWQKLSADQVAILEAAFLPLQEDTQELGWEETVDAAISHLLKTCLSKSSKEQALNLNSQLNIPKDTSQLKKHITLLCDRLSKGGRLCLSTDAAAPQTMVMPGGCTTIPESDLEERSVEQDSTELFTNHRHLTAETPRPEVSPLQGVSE
# Variants of: B1
# Conditions: with pthb1_human BBS9, Q3SYG4
row,Variant,effect of a mutation on the interaction
1,MAAASSSDSDACGAESNEANSKWLDAHYDPMANIHTFSACLALADLHGDGEYKLVVGDLGPGGQQPRLKVLKGPLVMTESPLPALPAAAATFLMEQHEPRTPALALASGPCVYVYKNLRPYFKFSLPQLPPNPLEQDLWNQAKEDRIDPLTLKEMLESIRETAEEPLSIQSLRFLQLELSEMEAFVNQHKSNSIKRQTVITTMTTLKKNLADEDAVSCLVLGTENKELLVLDPEAFTILAKMSLPSVPVFLEVSGQFDVEFRLAAACRNGNIYILRRDSKHPKYCIELSAQPVGLIRVHKVLVVGSTQDSLHGFTHKGKKLWTVQMPAAILTMNLLEQHSRGLQAVMAGLANGEVRIYRDKALLNVIHTPDAVTSLCFGRYGREDNTLIMTTRGGGLIIKILKRTAVFVEGGSEVGPPPAQAMKLNVPRKTRLYVDQTLREREAGTAMHRAFQTDLYLLRLRAARAYLQALESSLSPLSTTAREPLKLHAVVQGLGPTFKLTLHLQNTSTTRPVLGLLVCFLYNAALYSLPRAFFKVPLLVPGLNYPLETFVESLSNKGISDIIKVLVLREGQSAPLLSAHVNMPGSEGLAAA [E525A],with no effect
2,MAAASSSDSDACGAESNEANSKWLDAHYDPMANIHTFSACLALADLHGDGEYKLVVGDLGPGGQQPRLKVLKGPLVMTESPLPALPAAAATFLMEQHEPRTPALALASGPCVYVYKNLRPYFKFSLPQLPPNPLEQDLWNQAKEDRIDPLTLKEMLESIRETAEEPLSIQSLRFLQLELSEMEAFVNQHKSNSIKRQTVITTMTTLKKNLADEDAVSCLVLGTENKELLVLDPEAFTILAKMSLPSVPVFLEVSGQFDVEFRLAAACRNGNIYILRRDSKHPKYCIELSAQPVGLIRVHKVLVVGSTQDSLHGFTHKGKKLWTVQMPAAILTMNLLEQHSRGLQAVMAGLANGEVRIYRDKALLNVIHTPDAVTSLCFGRYGREDNTLIMTTRGGGLIIKILKRTAVFVEGGSEVGPPPAQAMKLNVPRKTRLYVDQTLREREAGTAMHRAFQTDLYLLRLRAARAYLQALESSLSPLSTTAREPLKLHAVVQGLGPTFKLTLHLQNTSTTRPVLGLLVCFLYNKALYSLPRAFFKVPLLVPGLNYPLETFVESLSNKGISDIIKVLVLREGQSAPLLSAHVNMPGSEGLAAA [E525K],with no effect

# Second part, the variant after the results:
row,effect of a mutation on the interaction,Variant
1,with no effect,MAAASSSDSDACGAESNEANSKWLDAHYDPMANIHTFSACLALADLHGDGEYKLVVGDLGPGGQQPRLKVLKGPLVMTESPLPALPAAAATFLMEQHEPRTPALALASGPCVYVYKNLRPYFKFSLPQLPPNPLEQDLWNQAKEDRIDPLTLKEMLESIRETAEEPLSIQSLRFLQLELSEMEAFVNQHKSNSIKRQTVITTMTTLKKNLADEDAVSCLVLGTENKELLVLDPEAFTILAKMSLPSVPVFLEVSGQFDVEFRLAAACRNGNIYILRRDSKHPKYCIELSAQPVGLIRVHKVLVVGSTQDSLHGFTHKGKKLWTVQMPAAILTMNLLEQHSRGLQAVMAGLANGEVRIYRDKALLNVIHTPDAVTSLCFGRYGREDNTLIMTTRGGGLIIKILKRTAVFVEGGSEVGPPPAQAMKLNVPRKTRLYVDQTLREREAGTAMHRAFQTDLYLLRLRAARAYLQALESSLSPLSTTAREPLKLHAVVQGLGPTFKLTLHLQNTSTTRPVLGLLVCFLYNEKLYSLPRAFFKVPLLVPGLNYPLETFVESLSNKGISDIIKVLVLREGQSAPLLSAHVNMPGSEGLAAA [A526K]
2,with no effect,MAAASSSDSDACGAESNEANSKWLDAHYDPMANIHTFSACLALADLHGDGEYKLVVGDLGPGGQQPRLKVLKGPLVMTESPLPALPAAAATFLMEQHEPRTPALALASGPCVYVYKNLRPYFKFSLPQLPPNPLEQDLWNQAKEDRIDPLTLKEMLESIRETAEEPLSIQSLRFLQLELSEMEAFVNQHKSNSIKRQTVITTMTTLKKNLADEDAVSCLVLGTENKELLVLDPEAFTILAKMSLPSVPVFLEVSGQFDVEFRLAAACRNGNIYILRRDSKHPKYCIELSAQPVGLIRVHKVLVVGSTQDSLHGFTHKGKKLWTVQMPAAILTMNLLEQHSRGLQAVMAGLANGEVRIYRDKALLNVIHTPDAVTSLCFGRYGREDNTLIMTTRGGGLIIKILKRTAVFVEGGSEVGPPPAQAMKLNVPRKTRLYVDQTLREREAGTAMHRAFQTDLYLLRLRAARAYLQALESSLSPLSTTAREPLKLHAVVQGLGPTFKLTLHLQNTSTTRPVLGLLVCFLYNEELYSLPRAFFKVPLLVPGLNYPLETFVESLSNKGISDIIKVLVLREGQSAPLLSAHVNMPGSEGLAAA [A526E]
3,with no effect,MAAASSSDSDACGAESNEANSKWLDAHYDPMANIHTFSACLALADLHGDGEYKLVVGDLGPGGQQPRLKVLKGPLVMTESPLPALPAAAATFLMEQHEPRTPALALASGPCVYVYKNLRPYFKFSLPQLPPNPLEQDLWNQAKEDRIDPLTLKEMLESIRETAEEPLSIQSLRFLQLELSEMEAFVNQHKSNSIKRQTVITTMTTLKKNLADEDAVSCLVLGTENKELLVLDPEAFTILAKMSLPSVPVFLEVSGQFDVEFRLAAACRNGNIYILRRDSKHPKYCIELSAQPVGLIRVHKVLVVGSTQDSLHGFTHKGKKLWTVQMPAAILTMNLLEQHSRGLQAVMAGLANGEVRIYRDKALLNVIHTPDAVTSLCFGRYGREDNTLIMTTRGGGLIIKILKRTAVFVEGGSEVGPPPAQAMKLNVPRKTRLYVDQTLREREAGTAMHRAFQTDLYLLRLRAARAYLQALESSLSPLSTTAREPLKLHAVVQGLGPTFKLTLHLQNTSTTRPVLGLLVCFLYNEAAYSLPRAFFKVPLLVPGLNYPLETFVESLSNKGISDIIKVLVLREGQSAPLLSAHVNMPGSEGLAAA [L527A]
